One data set has as its system mouse skin. In words: TGF-β-induced dermal fibrosis in vivo in mouse skin. As to conditions: mice, intradermal, 10 μg/ml with TGF-β 10 ng/ml, one week post-injection. Here is the method: FIG. 9. E4 reverses TGF β-induced dermal fibrosis even if administered 3 days following TGF-β.
CB57BL6/J male mice were purchased from The Jackson Laboratory (Bar Harbor, Me.). Human rE (10 μg/ml) or Endostatin peptides (10 μg/ml) in combination with TGF-β (10 ng/ml), or TGF-β alone were injected intradermally on the back of mice in a total volume of 100 μl 1×PBS. Mice were injected in two different skin sites and sacrificed one week post-injection. Skin surrounding the injection site was harvested and fixed in 10% formalin prior to embedding in paraffin.
(§1) Six μm sections of paraffin-embedded human and mouse skin tissues were stained with hematoxylin and eosin (H&E). In some experiments, sections were stained with Masson trichrome which identifies collagens. Images were taken on a Nikon Eclipse 800 microscope. The thickness of the dermis was measured in 6 random fields of each section using the image/J® software. Data are shown in arbitrary units.
E4, a peptide representing the carboxy terminus of human endostatin, can attenuate fibrosis triggered by multiple fibrogenic factors. The anti-fibrotic effects of E4 can be detected whether administered concomitantly with or following the fibrogenic trigger. The efficacy of E4 was confirmed in […] pre-clinical models of fibrosis: a) bleomycin-induced dermal fibrosis in vivo in mouse skin, b) TGF-β induced dermal fibrosis in mouse skin, and c) bleomycin-induced pulmonary fibrosis. E4 peptide or a control peptide (E1; representing the amino terminal region of endostatin) were administered at the same time as TGF-β or bleomycin or 3-4 days following TGF-β or bleomycin. Mice were sacrificed one and two weeks after TGF-β-initiation of dermal fibrosis, and two and three weeks after bleomycin-induced pulmonary fibrosis. Two different modes of administration of the E4 peptide were also tested. It was confirmed that intraperitoneal and intratracheal administration was effective. The amount of E4 that was administered ws 10 μg/ml in a total volume of 100 μl for skin and IP injections and 50 μl for IT administration.

Data set [1] has as its system human primary lung fibroblasts. In words: FN and Col1α1 western blot in TGF-β-treated primary lung fibroblasts. The format is cell-based. As to conditions: normal human lung fibroblasts; TGF-β 10 ng/ml 24 h, then 5 μg/ml rE or peptide 48 h; vs TGF-β alone. Here is the method:
(§2) Human primary lung and skin fibroblasts were cultured. The explanted lungs of normal organ donors, patients with SSc or IPF, and clinically involved skin of SSc patients, a morphea patient and healthy donors were used for primary fibroblast culture. Approximately 2-cm pieces of peripheral lung and skin were minced and fibroblasts were cultured in Dulbecco's modified Eagle's medium (DMEM; Mediatech, Herndon, Va.) supplemented with 10% FBS, penicillin, streptomycin, and anti-mycotic agent, as previously described (Feghali et al., Arthritis Rheum 1999; 42:1451-7). All the cells were used between passages 3-6.
Cellular lysates were obtained from cultured fibroblasts as previously described (Pilewski et al., Am J Pathol 2005; 166:399-407). Briefly, 2.0×10^5 primary fibroblasts were cultured in 35-mm wells in 0.5% FBS-containing medium supplemented with 10 ng/ml of human recombinant TGF-β or PBS as vehicle control for 24 h, following which 5 μg/ml of human rE, endostatin peptides (E1-E4), or DMSO (vehicle) was added for 48 h. In some experiments, endostatin peptides were used without TGF-β stimulation. Cellular lysates were analyzed by western blot. Signals were detected following incubation with horseradish peroxidase-conjugated secondary antibody and chemiluminescence (Perkin Elmer Life Sciences, Inc., Boston, Mass.). The intensity of individual bands with expected molecular sizes was semi-quantitatively analyzed using the image/J® software available at on the internet (/rsb.info.nih.gov/ij/index.html), and normalized to individual GAPDH intensity.
To evaluate whether endostatin modulates production of ECM components in fibroblasts, FN and Col1α1 expression was examined in normal human lung fibroblasts by western blot analysis. Cells were treated with 5 µg/ml rE for 48 h with or without pre-stimulation with human TGF-β for 24 h. […] To define the functional domain of endostatin that mediates its inhibitory effect, four different peptides were synthesized corresponding to different regions of endostatin (Table 1).

The subject of the next data set is human skin explants. In words: Ex vivo human skin fibrosis organ culture, dermal thickness. Type of data set: cell-based. The note with it: for dermal thickness, baseline effect: injected alone without TGF-β, rE 1, 5, 10 μg/ml, peptides 10 μg/ml. As to the method: Human abdominal skin was obtained from corrective plastic surgery. As previously described (Yasuoka et al., The Open Rheumatol J 2008; 2:17-22), subcutaneous fat tissue was removed uniformly and skin tissue was cut into 1.5 cm×1.5 cm sections. The following were injected intradermally in a total volume of 100 μl 1×PBS: rE alone (1-10 μg/ml), endostatin peptides alone (10 μg/ml), rE or endostatin peptides (1-20 μg/ml) in combination with TGF-β (10 ng/ml), and TGF-β alone (10 ng/ml). In some experiments, human skin was first injected with TGF-β for 48 h followed by recombinant endostain (rE) administration in the same injection site as TGF-β. Explants containing complete epidermal and dermal layers were cultured in an air liquid interface with the epidermal and keratin layers side up and exposed to air. The culture medium was replaced every other day. After 1 or 2 weeks, skin tissue corresponding to an area with 8-mm diameter centered around the injection site was harvested using disposable 8-mm Acu Punch® (Acuderm inc., Lauderdale, Fla.). Skin tissue was fixed in 10% formalin prior to embedding in paraffin.
as §1

Data set [2] relates to Human umbilical vein endothelial cells (HUVECs). The data set can be described thus: Tubular formation assay in Matrigel. Type of data set: cell-based. As to conditions: 50 nM, 24 hours. As to the method:
The ability of endostatin peptide to inhibit angiogenesis was examined in tubular formation assay using Matrigel® culture. Human umbilical vein endothelial cells (HUVECs) were maintained in endothelial cell basal medium-2 (EBM-2; Clonetics, San Diego, Calif.) supplemented with EBM-2 MV SingleQuots®. HUVECs (5×10^4) were cultured in duplicate on 24-well Matrigel® plates (BD Biosciences, San Diego, Calif.) alone, or in the presence of rE or E4 peptide (50 nM) in EBM-2 at 37° C. DMSO was used as vehicle control. After 24 hours, images were captured using a […] microscope. The degree of cord formation was quantified by measuring the area occupied by tubes in 6 random fields per well. Three independent experiments were performed.

The subject of data set [3] is human primary skin fibroblasts. In words: TGF-β-induced ECM production in primary skin (dermal) fibroblasts, western blot. Type of data set: cell-based. The note with it: dermal fibroblasts from healthy controls, SSc or morphea patients. Here is the method: as §2
Cellular lysates were obtained from cultured fibroblasts as previously described (Pilewski et al., Am J Pathol 2005; 166:399-407). […] Cellular lysates were analyzed by western blot. Signals were detected following incubation with horseradish peroxidase-conjugated secondary antibody and chemiluminescence (Perkin Elmer Life Sciences, Inc., Boston, Mass.). The intensity of individual bands with expected molecular sizes was semi-quantitatively analyzed using the image/J® software available at on the internet (/rsb.info.nih.gov/ij/index.html), and normalized to individual GAPDH intensity. […]

The conditions of data set [4]: cited from earlier work.

Turning to “H-^1HSHRDFQPVLHLVALNSPLSGGMRGIRGADFQCFQQARAVGLAGT^45-OH (H-HSHRDFQPVLHLVALNSPLSGGMRGIRGADFQCFQQARAVGLAGT-OH; UniProt P39060 1572-1616, looked up, fragment) [E1, human endostatin fragment, amino acids 1-45; amino terminal control peptide]”, the “TGF-β-induced dermal fibrosis (dermal thickness)” value with mouse skin was “did not alter”. In addition, in data set [1], the “FN and Col1α1 levels/production” value was “had no effect”.

Turning to “H-^133SYCETWRTEAPSATGQASSLLGGRLLGQSAASCHHAYIVLCIENSFMT^180-OH (H-SYCETWRTEAPSATGQASSLLGGRLLGQSAASCHHAYIVLCIENSFMT-OH; cysteine pairing not given here; UniProt P39060 1704-1751, looked up, fragment) [E3, human endostatin fragment, amino acids 133-180]”, the “TGF-β-induced dermal fibrosis (dermal thickness)” value with mouse skin is “prevented”. The “dermal thickness, baseline effect” value with human skin explants is recorded as “tendency towards reduction”. For the same molecule, the “development of fibrosis as measured by dermal thickness” value with human skin explants (peptides 10 μg/ml with TGF-β 10 ng/ml, vs TGF-β alone) is on record as “significantly abolished”.

For “H-^71IVNLKDELLFPSWEALFSGSEGPLKPGARIFSFDGKDVLRHPTWP^115-OH (H-IVNLKDELLFPSWEALFSGSEGPLKPGARIFSFDGKDVLRHPTWP-OH; UniProt P39060 1642-1686, looked up, fragment) [E2, human endostatin fragment, amino acids 71-115]”, the “TGF-β-induced dermal fibrosis (dermal thickness)” value in the data set with mouse skin was “significantly reduced”.

B1: full-length recombinant human endostatin (protein, UniProt P39060 1572-1754, looked up)
Endostatin: HSHRDFQPVLHLVALNSPLSGGMRGIRGADFQCFQQARAVGLAGTFRAFLSSRLQDLYSIVRRADRAAVPIVNLKDELLFPSWEALFSGSEGPLKPGARIFSFDGKDVLRHPTWPQKSVWHGSDPNGRRLTESYCETWRTEAPSATGQASSLLGGRLLGQSAASCHHAYIVLCIENSFMTASK
modifications: Endostatin
notes: full-length recombinant human endostatin purchased from Sigma-Aldrich
With B1, in data set [2], the “inhibition of tubular structure formation” value is recorded as “significant”. In data set [3], the “TGF-β-induced ECM production (FN, Col1α1)” value is on record as “reduced”. Also, the “TGF-β-induced dermal fibrosis, delayed treatment” value in the data set with human skin explants (injected 2 days after TGF-β administration) is reported as “significantly ameliorated”. In addition, the “dermal thickness, baseline effect” value in the data set on human skin explants is “tendency towards reduction”. In addition, the dermal thickness entry in the data set on human skin explants (rE 1, 5, 10 μg/ml injected simultaneously with TGF-β 10 ng/ml, one week, dose-dependent) was “significantly reduced”. In addition, the “FN and Col1α1 levels/production” value in data set [1] is “dramatically reduced”.

B2: ENDSTAR: recombinant human endostatin purified from E. coli containing an additional nine-amino acid sequence, his-tagged; approved for non-small-cell lung cancer in China (protein, UniProt P39060 1572-1754, looked up)
Endostatin: HSHRDFQPVLHLVALNSPLSGGMRGIRGADFQCFQQARAVGLAGTFRAFLSSRLQDLYSIVRRADRAAVPIVNLKDELLFPSWEALFSGSEGPLKPGARIFSFDGKDVLRHPTWPQKSVWHGSDPNGRRLTESYCETWRTEAPSATGQASSLLGGRLLGQSAASCHHAYIVLCIENSFMTASK
modifications: Endostatin additional nine-residue His tag
notes: approved for non-small-cell lung cancer in China
Turning to B2, in data set [4], the half-life entry is recorded as “short”.

The values above are taken from patent US10709769B2, “Use of endostatin peptides for the treatment of fibrosis” (University of Pittsburgh—Of the Commonwealth System of …, priority 2009, dated 2020).
